The series is described as follows: soluble on expression in E. coli; label from the status in PepcDB or PDB records.
In the case of “NSDSECPLSHDGYCLHDGVCMYIEALDKYACNCVVGYIGERCQYRDLKWWELR”, the “soluble on expression in E. coli” value is reported as “soluble”.

Take “MRGSHHHHHHGMASMVNTKPEKTEEDSEEVREQKHKTFVEKYEKQIKHFGMLRRWDDSQKYLSDNVHLVCEETANYLVIWCIDLEVEEKCALMEQVAHQTIVMQFILELAKSLKVDPRACFRQFFTKIKTADRQYMEGFNDELEAFKERVRGRAKLRIEKAMKEYEEEERKKRLGPGGLDPVEVYESLPEELQKCFDVKDVQMLQDAISKMDPTDAKYHMQRCIDSGLWVPNSKASEAKEGEEAGPGDPLLEAVPKTGDEKDVSV”: the “soluble on expression in E. coli” value is on record as “soluble”. For the sequence “MPVGTAEGIYKRRAIGGTGRPECLPYHFHEMQGALAHRGALDYSALPVQGASWSDLDPLEFERFRRFIRESRGQGDKSLLDLPDVELAKALGAVKANHEVRTVRVLGLLLFGKEEALQRFIPTHEVAFQVLRGTRVEVNDFFRWPLLRTMEELLTRFRAWNHEEEVSFGLMRIGVPNYSERAFREGLANALIHRDYTRLGAVHVQWHEDRIEISNPGGFPEGIHLGNLLVAPPRPRNPLLADAFKRAGVVERTGRGIDIIFEEQLRNGRPAPSYEQSTPESVVLVLPGGEANLNFVRLIVEEGQARRPLRLDELLVLNGLWQERQLTTKEAARLIQKTEATARAVLERLVETGLIEARGTGRGRTYHLSASTYRRLGEEAAYVRLKGFEHQQMEQMVLEYVRAHGRITRREAAELCRIGPYQATRLLKRMVEQGKLTPHGVGKGTWYALRS”, the “soluble on expression in E. coli” value is given as “soluble”.

In the case of “MFADTCGFMNRSPEHIFGSPEIDYSDVSTGYLEDALIESGERSKRRRLLFEDPSKSFNDDDSQNDWGLHESYSCLNSQFVTPHVNTGERISGVSYCQETISNVYESPDTSVSYDKIYVREKSPTEPSSSNCGNKNKRLITKLVYPFGLVKPGGRENDVTLNDINERILMAPSRPIRHPVGDFASRPCVSGRGPGLSGKAVVALTKIQTQGRGTITIIRTKG”, the “soluble on expression in E. coli” value is listed as “soluble”. “MVKIRLARFGSKHNPHYRIVVTDARRKRDGKYIEKIGYYDPRKTTPDWLKVDVERARYWLSVGAQPTDTARRLLRQAGVFRQEAREGA”: the “soluble on expression in E. coli” value is reported as “soluble”. In the case of “DNAVGPPASAPPPPSVPVAKALSRTLAPTAEFTGFLAAPETVELRSRVGGTLDAISVPEGRLVSRGQLLFQIDPRPFEVALDTAVAQLRQAEVLARQAQADFDRIQRLVASGAVSRKNADDVTATRNARQAQMQSAKAAVAAARLELSWTRITAPIAGRVDRILVTRGNLVSGGVAGNATLLTTIVSHNPMYVYFDIDEATWLKALRHTRSDKNPPVVNMGLTTDNGLPYQGVLDFMGNQMNRSTGTIRARAVIPDPDGMLSPGLFARISLPIGEPRETVLIDDLAVSADQGKNYVLIVGKENQVEYRPVELGQMVD” it was “not soluble”; in that of “MTDSTPQGSTPGMSPEAILNGTGKPWEEWLKLLDDVKATSWTHTHIAKHIVDNFDVSGWWAQGIAIGYEYERGMRKPGMTSDGFAANASKTLNLPVEKVWKLFGDDDLRAQWLDPALIEKTSASEPRTFNAKWLADDSRVSVNFTSKGDNKSSFGIQHRRLPDQDSIPVMKAFWKERIAALVEVSKQFSLLEHHHHHH”, “soluble”. With “MKNVGFIGWRGMVGSVLMQRMVEERDFDAIRPVFFSTSQLGQAAPSFGGTTGTLQDAFDLEALKALDIIVTCQGGDYTNEIYPKLRESGWQGYWIDAASSLRMKDDAIIILDPVNQDVITDGLNNGIRTFVGGNCTVSLMLMSLGGLFANDLVDWVSVATYQAASGGGARHMRELLTQMGHLYGHVADELATPSSAILDIERKVTTLTRSGELPVDNFGVPLAGSLIPWIDKQLDNGQSREEWKGQAETNKILNTSSVIPVDGLCVRVGALRCHSQAFTIKLKKDVSIPTVEELLAAHNPWAKVVPNDREITMRELTPAAVTGTLTTPVGRLRKLNMGPEFLSAFTVGDQLLWGAAEPLRRMLRQLA” the entry was “soluble”; with “MGSDKIHHHHHHMSGYKVFIVDDEADIALILKLQLEDAGYRTMRARDGIEALDALERESFDLVLLDIRMPRMDGIEVLERIRDRWPDLVVIMMTAHGSEDIAVEAMKKGAVDYISKPFSSDDMKKRVERAIQFNRTRLENERLQRVLDEERRKMGAILRGMADLLVAVDREGRIITINRAAEERFGIAADGVQNQPVELLLKTDIPGERLPCRVVLATGDPCLDVTYAVQAGGGMIPVLSSATPLKGAGGEMMGCVEIIRDISTLKALEREREDFVSMLSHDLKTPITAVVGSIDLVREGRIGPVNAEQRSYLDSAMESCAEMVDMIDTLLDVHRFEAGRMVMAARLEDLGPLMARTLGRFDSVARRAGIALVLTLPDYPLALSLDRNQFARLMGNLIANAIKFTQEGGEIEVSARLLNDPAELVGRIPRESYPDVPLPPLNPHLLITVRDTGVGIPADSLVSIFDRFVQARNRRLGKSTGTGLGLAFCRKVMDAHHGYIWAESVEGEGSSFNMLFPLTNEAYAATGG”, “not soluble”.

Take “MKGFCYRCGHEGELLDGLCKICYTHMNPLIEVDNEVHVEVCHMCGSYKRKLWQDPQKRETYEIMEEIAYFGVKDNLKKANKSIDVEIMPQEPRQLPGGKRSRVEIPTVVFAKGRLVGEDNDREEERHITVYLDMVQCPRCSRCMSNYYEGTLQVRAMNRFLNDKERIELDDFVRDEAGKRLNKDRMAFISKYIPQKEGLDYQMGSMGAIRNIASAIKAKYGGKSIETAKLVGVDKDTGKDMYRITVAVRIPEFKLGDILEHKEKIYVVSSLNESRVYMEPVELGDKIALVWNEIDKSAKLIKKGEDCETATVISITPDTITAMDDSNYEIYEYNNTIENVKEGNKIRIFKNEEINRILEIIELEHHHHHH”: the “soluble on expression in E. coli” value was “soluble”. In the case of “MTNFQRARSEEQRAVRRQAILDTTAAMLEEMPVGEVSLNELSRRVGLAKSNVLRYFESREAILLELLDRAWQQWVADLPALVHAGVDQGAPVSRRAEQFAAVIAASLAGRQVLCDLLSAQAGVLEHNVSPQVAARYKRAAVANVADIAALAHQHLPELGASAPQLTAVMIMAVGAVWTHARPSPAMLSAYEADPSLTAFKLDFVTTLQEMLATLTAGTIARESA” it was “not soluble”; in that of “MEDIYYSPRYEDDEYEYRHVILPQAVSRKVPKGRLLSEAEWRRAGVQQSLGWEHYMVHNPEKHILLFRRKRHFTKADEERAKMELLRDMEVFNRAQQQTTATDEKLNAVFYEFVNKAV”, “not soluble”.

As to “VRTHEVVLHRIEQDLAAGKLTVGGRLPAERALAEELGVGRSSVREAMRVLEAMGIVRTAVGSGPDAGAIVAADPAASIGAAIRLHMATRTLPIHDVVQTRTLLESWAVQEAAGQAPDLDFSAIDTLLDAMDDEDLSPEAFHRLDADLHVAMAGLAGNVLVEAMMVSLRDSIHGYVMQAVPLLDDWPAVATHLRCEHRGIVAALRDGHGAEAAGLVREHIEGFYGRFAPVRG”, the “soluble on expression in E. coli” value is given as “not soluble”. In the case of “MGRGSEFGIFAFTDSVFEITESVGRFELKVMRYSGARGTVIVPYWTENDTATESKDYEGARGELVFENNESEKFIDLFILEESSYEKDVSFKVHIGEPRLAPDDGLAAKIKEVEKKPVQDLTELDRILLLSKPRNGELTTAYVRIRESQEFKATVDKLVAKA” it was “soluble”; in that of “MSLKLLHERMMHSLARYPRQTAVVDEQDALSYEALELRIREFVAMLCALGVGQGQRILLWAHKSVDLVAVMQAALRLGVVYVPVDPLSPVSRLEKIAGDSQAVLVLCTAARLEELAGSALAQVRSVVLDDPASAGYWRNIDTGSSVVPTLAIQPDDLAYILYTSGSTGVPKGVALSHGNALAFVDWACERYCFQPGERFANHAPLHFDLSVLDIYCALNVGATVCLVPESIAFSPRLLTDFIRQHEISIWYSVPSVLMMMMQDGDLLSDIQDTLRVLLFAGEPFPVKHLRDLRAAYADVRLANLFGPTETNVCTAFEVGAIDPERVLPVPIGTAASGNQVWAQKPDGSRCAVGEEGELVVQGPTVMLGYFAKPAQEGPYKTGDMVRQRPDGNYEYLGRRDDMLKVRGNRIERGEVEAALLAHPQVSEAAVLVVGEGMNAQLWGVLVAHTRDALSLIDLKRHCAQRLPRYMIIDKVLCLDALPRNANGKVDRFALARQVEGHHHHHH”, “soluble”. “MNRFSGKSVIVTGSSSGIGRATAVLFAKYGAQVTITGRDAGKLEATKKKMLKVMKNPENVCVVVANLTDSDGQDEIVQSALDAFGRIDVLVNNAGANVVDGTFNTDQSTELYHKTFQINFEAVIEMVKKTKNHLIESKGEIVNVSSVAAGPQALAPSPYYAASKAALDQYTRCVALDLILQGVRVNSVSPGVVTSGFLGAMGMSEQVQKQIEENFTSNRACIPAGVCGKPEDIAELIIFLADRKRSSYIIGQSIVADGGTSLVSGLTAQNIQRNN”: the “soluble on expression in E. coli” value is listed as “not soluble”. On to “LGKLDVLKVSAPWLASLRDELDQTCFLAVWGNKGPTVVYVEPSMGAVTLVTQIGSVLPLLSSSTGLVFDSFLAQGETALLREQETPRLSADQLHEVERHIKQIRATGVHQIQGMLMPGINAASSPLFAMGNKLVGVITVVGPGSVLNDKAQGQAARRLLETATAISERMGGSQLRS”, for which the “soluble on expression in E. coli” value is “soluble”.

In the case of “MAHHHHHHMGRLEIRVCGARNVANVQRVGKPDPYVKVKLGNSKKSQIKYKTHVAENCLNPVWNELFKFQVADYDSMQVVFELWNDNVIVDDLLGSYSLSLNGLTRGVVIDTWVLLEGTKGSSSELHLRVLAVDFGRDPGPGDRLTLSLEGDTMMPSTGQTYRPPKNYVPPTQGIVLQSYPPAPLGPPPPVVYSPSAAPRPQVQYGYVTPPQPQRYACGAPPPPPQQPPSQGYGYGAVQAPQNYSYGAPPPPQPMYGAPQLPQCLPYAAGPPPPQMYGPPPPQRRPVQMAYGIPPDM”, the “soluble on expression in E. coli” value is on record as “not soluble”. Turning to “MHHLILGYGYCGYYLAQELLGHHQQVTVVSRQLKKELELSKLQHISHDLEYPFHWSEPDSIIYYLIPPPSQGTCDTFLQQFLNQSSLNAKKIIYFGSSGVYGNHQGAWVDELSACIIDSPRQQRRLDAEQQWLAYCQQHNKELSLLRIAGIYGPNRIPADAAKSKIPIIKPTEAPFTNHIFVKDLALIAYLLGQKQTTSAVYNVADGNPTHMGELQQTVANALGIESASYESFEQAWEKASPMKREFMRASKRLKIDLLKTALGEDIQFTSLYDAVKQSL”, the “soluble on expression in E. coli” value was “not soluble”. With “MKYLLVDLSGKVDNYDKALYQALEKELSNEKSSIQLLIPGHGLIRLIPNKFSQTEFIVKRLIKALEGGINYIYLLLHVAFKKIDTIHFQWLPFVEVVGIEKYILYLLHVLSPQTKVILTIHNIYPHGVKSMSDSGKQKYKKRFRDTCRNIDNIIVHTESSKMEVIKEFDFVPDIISIVHHGVFIPKIRISKKEFLQKNKYVILQFGLQTYYKGTDILVDAVNLLPAEYSEKIETRIVGGVGESYLQELKGKDSNSLIHWKSYFLSNDELYEEINNSDVLVLPYREISQSGVLLLSIYFEKNIICSDLPSFVETIHGDQDNSLDHDFFFKNNDPSSLCELLMRYIDSNINNEKIQYRIKHLKNLYSWENAAKATISIYRK” the entry was “not soluble”; with “MGSDKIHHHHHHMIFVPNENNDPRVNLAIETYLLTEMPLDEPILLFYINEPSIIIGRNQNTIEEINKEYVDEHGIHVVRRLSGGGAVYHDHGNLNFSFIMPDDGNSFRDFAKVTQPIIQALHDLGVEGAELKGRNDLVINDMKFSGNAMYATNGRMFAHGTLMFDSDIDEVVNTLKVRKDKIESKGIKSVRSRVTNIKPFLSEDKQEMTTEEFRQEILLKIFGVDSIDQVKTYELTDQDWAAINKISEQYYRNWDWNYGKSPAFNLERRHRFPIGSIEMKMNVADGAIQEIKIFGDFFGLGEIKDVEDILTGVKYDKASLEEAIDQIDVKKYFGNIEKEDLLGLIY”, “not soluble”.

(Values after the DeepSol protein solubility set.)
